Laboratory results: the supplement of paper PMC5998384

How the values were obtained:
HeLa Kyoto [1] = assay: solubility in G1/S (NP-40 vs SDS abundance) (log2 ratio); higher = more soluble; settings: cell cycle stage: G1/S
HeLa Kyoto [2] = assay: melting temperature (median over replicates), in situ; higher = more thermally stable
HeLa Kyoto [3] = assay: solubility change mitosis vs G1/S (difference of NP-40 vs SDS log2 ratios) (log2 ratio difference); higher = more soluble in mitosis
HeLa Kyoto [4] = assay: thermal stability score vs G1/S (z-score of summed log2 fold changes over temperatures); higher = more thermally stable than in G1/S
[5] = cell cycle stage: early G1 (4.5 h after nocodazole release)
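Throughout, for melting temperature (median over replicates), in situ: HeLa Kyoto cells synchronized by double thymidine or nocodazole block, proteins quantified by TMT10plex mass spectrometry, three independent biological replicates.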
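Throughout, for solubility change mitosis vs G1/S (difference of NP-40 vs SDS log2 ratios): synchronized HeLa Kyoto cells (double thymidine block for G1/S, nocodazole release for mitosis), protein amounts in NP-40 versus SDS lysates quantified by mass spectrometry, three biological replicates.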
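Throughout, for solubility in G1/S (NP-40 vs SDS abundance): HeLa Kyoto cells arrested at G1/S by double thymidine block, proteins quantified by TMT10plex mass spectrometry in mild NP-40 versus SDS extracts, three biological replicates.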
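Throughout, for thermal stability score vs G1/S (z-score of summed log2 fold changes over temperatures): synchronized HeLa Kyoto cells, proteins quantified by TMT10plex mass spectrometry, three biological replicates, mitosis taken 0.5 h after nocodazole release, G1/S directly after double thymidine block.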

| Sequence | solubility in G1/S (log2) (HeLa Kyoto [1]) | melting temperature (HeLa Kyoto [2]; cell cycle stage: G1/S) [°C] | melting temperature (HeLa Kyoto [2]; cell cycle stage: mitosis) [°C] | solubility change mitosis (log2) (HeLa Kyoto [3]) | thermal stability score (HeLa Kyoto [4]; [5]) | thermal stability score (HeLa Kyoto [4]; cell cycle stage: mitosis) |
| --- | --- | --- | --- | --- | --- | --- |
| METSAPRAGSQVVATTARHSAAYRADPLRVSSRDKLTEMAASSQGNFEGNFESLDLAEFAKKQPWWRKLFGQESGPSAEKYSVATQLFIGGVTGWCTGFIFQKVGKLAATAVGGGFFLLQLANHTGYIKVDWQRVEKDMKKAKEQLKIRKSNQIPTEVRSKAEEVVSFVKKNVLVTGGFFGGFLLGMAS [FUNDC2] | 0.0627 | 58.2 | 55.9 | -0.0574 | -0.847 | -1.68 |
| MEVLAAETTSQQERLQAIAEKRKRQAEIENKRRQLEDERRQLQHLKSKALRERWLLEGTPSSASEGDEDLRRQMQDDEQKTRLLEDSVSRLEKEIEVLERGDSAPATAKENAAAPSPVRAPAPSPAKEERKTEVVMNSQQTPVGTPKDKRVSNTPLRTVDGSPMMKAAMYSVEITVEKDKVTGETRVLSSTTLLPRQPLPLGIKVYEDETKVVHAVDGTAENGIHPLSSSEVDELIHKADEVTLSEAGSTAGAAETRGAVEGAARTTPSRREITGVQAQPGEATSGPPGIQPGQEPPVTMIFMGYQNVEDEAETKKVLGLQDTITAELVVIEDAAEPKEPAPPNGSAAEPPTEAASREENQAGPEATTSDPQDLDMKKHRCKCCSIM [PALM] | 0.0461 | 55.2 | 57 | 0.116 | -0.779 | -1.02 |
| MEVPPPAPRSFLCRALCLFPRVFAAEAVTADSEVLEERQKRLPYVPEPYYPESGWDRLRELFGKDEQQRISKDLANICKTAATAGIIGWVYGGIPAFIHAKQQYIEQSQAEIYHNRFDAVQSAHRAATRGFIRYGWRWGWRTAVFVTIFNTVNTSLNVYRNKDALSHFVIAGAVTGSLFRINVGLRGLVAGGIIGALLGTPVGGLLMAFQKYSGETVQERKQKDRKALHELKLEEWKGRLQVTEHLPEKIESSLQEDEPENDAKKIEALLNLPRNPSVIDKQDKD [TIMMDC1] | -0.03 | 55.6 | 55.2 | 0.01 | -2.95 | -2.24 |
| MEVVPAEVNSLLPEEIMDTGITLVDDDSIEAVIVSSPIPMETELEEIVNINSTGDSTATPISTEPITVYSNHTNQVAVNTTITKADSNTTVKPAFPSGLQKLGAQTPVTISANQIILNKVSQTSDLKLGNQTLKPDGQKLILTTLGKSGSPIVLALPHSQLPQAQKVTTQAQSGDAKLPPQQIKVVTIGGRPEVKPVIGVSALTPGSQLINTTTQPSVLQTQQLKTVQIAKKPRTPTSGPVITKLIFAKPINSKAVTGQTTQVSPPVIAGRVLSQSTPGTPSKTITISESGVIGSTLNSTTQTPNKIAISPLKSPNKAVKSTVQTITVGGVSTSQFKTIIPLATAPNVQQIQVPGSKFHYVRLVTATSASSSTQPVSQNPSTNTQPLQQAKPVVVNTTPVRMSVPIVSAQAVKQVVPKPINPTSQIVTTSQPQQRLIMPATPLPQIQPNLTNLPPGTVLAPAPGTGNVGYAVLPAQYVTQLQQSSYVSIASNSTFTGTSGIQTQARLPFNGIIPSESASRPRKPCNCTKSLCLKLYCDCFANGEFCNNCNCTNCYNNLEHENERQKAIKACLDRNPEAFKPKIGKGKEGESDRRHSKGCNCKRSGCLKNYCECYEAKIMCSSICKCIGCKNFEESPERKTLMHLADAAEVRVQQQTAAKTKLSSQISDLLTRPTPALNSGGGKLPFTFVTKEVAEATCNCLLAQAEQADKKGKSKAAAERMILEEFGRCLMSVINSAGKAKSDPCAMNC [LIN54] | 0.15 | 46.4 | 50.1 | -0.11 | 0.22 | 0.778 |
| MFAKAFRVKSNTAIKGSDRRKLRADVTTAFPTLGTDQVSELVPGKEELNIVKLYAHKGDAVTVYVSGGNPILFELEKNLYPTVYTLWSYPDLLPTFTTWPLVLEKLVGGADLMLPGLVMPPAGLPQVQKGDLCAISLVGNRAPVAIGVAAMSTAEMLTSGLKGRGFSVLHTYQDHLWRSGNKSSPPSIAPLALDSADLSEEKGSVQMDSTLQGDMRHMTLEGEEENGEVHQAREDKSLSEAPEDTSTRGLNQDSTDSKTLQEQMDELLQQCFLHALKCRVKKADLPLLTSTFLGSHMFSCCPEGRQLDIKKSSYKKLSKFLQQMQQEQIIQVKELSKGVESIVAVDWKHPRITSFVIPEPSPTSQTIQEGSREQPYHPPDIKPLYCVPASMTLLFQESGHKKGSFLEGSEVRTIVINYAKKNDLVDADNKNLVRLDPILCDCILEKNEQHTVMKLPWDSLLTRCLEKLQPAYQVTLPGQEPIVKKGRICPIDITLAQRASNKKVTVVRNLEAYGLDPYSVAAILQQRCQASTTVNPAPGAKDSLQVQIQGNQVHHLGWLLLEEYQLPRKHIQGLEKALKPGKKK [EIF2D] | 0.234 | 48.3 | 48.3 | -0.0853 | 0.861 | 1.5 |
